Results: paper PMC8837689, “Allosteric control of Ubp6 and the proteasome via a bidirectional switch” (Nature Communications, 2022)

Key:
[1] = molecular target: 26S proteasome purified from ubp6Δ hul5Δ yeast (nominally wild-type), Protein A-tagged (budding yeast) (UniProt P33299); experiment: Ub-AMC hydrolysis (activation of Ubp6 as a proxy for the association); Ubp6 1.25 nM to 60 nM titrated on 1 nM proteasome with 1 μM Ub-AMC; rates of Ubp6 alone and proteasome alone subtracted; hyperbolic fit; 50 mM Tris-HCl pH 7.5, 1 mM EDTA, 1 mM ATP, 5 mM MgCl2, 1 mM DTT, 1 mg/mL ovalbumin
[2] = molecular target: 26S proteasome purified from rpt1-RK ubp6Δ hul5Δ yeast, Protein A-tagged (budding yeast) (UniProt P33299); experiment: as above
[3] = molecular target: 26S proteasome purified from rpt1-RK ubp6Δ hul5Δ yeast, Protein A-tagged (budding yeast) (UniProt P33299)
[4] = molecular target: 26S proteasome purified from ubp6Δ hul5Δ yeast (nominally wild-type), Protein A-tagged (budding yeast) (UniProt P33299)
[5] = molecular target: T1, Rpt6 (proteasome subunit) (budding yeast, UniProt Q01939 1-405); experiment: cryo-EM structure; 26S proteasomes and Ubp6-UbVS mixed 1:4 (400 nM 26S or 26S Rpt1-RK, 1.6 μM Ubp6-UbVS), 20 min on ice; 20 mM HEPES-NaOH pH 7.4, 40 mM NaCl, 4 mM DTT, 4 mM MgCl2, 4 mM ATP, ~25% sucrose; maps at 6 to 7 Å, models by flexible fitting; settings: both partners purified
T1 construct: Rpt6, ATPase of the regulatory particle, budding yeast; Stood in the assay as a subunit of m6; source: subunit of the 26S proteasome (3X FLAG) purified from yeast
T1 sequence: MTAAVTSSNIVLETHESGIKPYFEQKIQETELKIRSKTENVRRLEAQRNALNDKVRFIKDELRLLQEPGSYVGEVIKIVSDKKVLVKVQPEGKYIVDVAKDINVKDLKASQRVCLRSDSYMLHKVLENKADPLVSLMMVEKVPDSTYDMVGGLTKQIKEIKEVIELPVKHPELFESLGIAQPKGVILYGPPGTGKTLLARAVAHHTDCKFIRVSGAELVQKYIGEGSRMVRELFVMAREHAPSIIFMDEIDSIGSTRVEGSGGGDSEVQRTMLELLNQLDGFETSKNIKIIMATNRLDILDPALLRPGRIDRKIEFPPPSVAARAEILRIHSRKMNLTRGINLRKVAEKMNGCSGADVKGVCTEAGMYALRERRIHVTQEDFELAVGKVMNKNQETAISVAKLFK

[6] = molecular target: T2, Ubp6 (wild-type, His6-tagged) (budding yeast, UniProt P43593 1-499); experiment: as above; settings: both partners purified
T2 construct: Ubp6, deubiquitinating enzyme, budding yeast; N-terminal UBL domain and C-terminal catalytic domain (residues 104 to 499); In the cryo-EM rows Ubp6 stood as the UbVS adduct; only the catalytic domain (104-499) was modelled; also called His6-Ubp6; wild-type Ubp6; source: E. coli Rosetta (DE3), purified (Ni-NTA)
T2 sequence (looked up): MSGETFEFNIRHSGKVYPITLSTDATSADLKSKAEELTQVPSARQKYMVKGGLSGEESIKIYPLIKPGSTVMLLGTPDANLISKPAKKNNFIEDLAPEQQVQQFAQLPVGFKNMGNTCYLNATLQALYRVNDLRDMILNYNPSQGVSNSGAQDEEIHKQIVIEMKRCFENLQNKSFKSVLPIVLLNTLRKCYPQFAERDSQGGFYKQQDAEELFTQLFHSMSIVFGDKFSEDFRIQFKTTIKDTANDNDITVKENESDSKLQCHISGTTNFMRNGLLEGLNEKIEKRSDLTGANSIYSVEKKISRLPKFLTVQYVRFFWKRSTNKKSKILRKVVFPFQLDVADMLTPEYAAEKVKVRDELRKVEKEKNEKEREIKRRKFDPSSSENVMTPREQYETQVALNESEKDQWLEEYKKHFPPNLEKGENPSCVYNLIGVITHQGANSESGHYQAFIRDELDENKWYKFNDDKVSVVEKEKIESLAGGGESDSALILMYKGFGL

Molecule | Kd [1] [nM] | binding result [5] | binding result [6] | further results
Ubp6 (wild-type, His6-tagged) (from UniProt P43593 1-499) (enzyme) | 3.3 | – | – | Kd [2]: 2 nM; capacity of the Rpt1-RK proteasome to activate wild-type Ubp6 (Ub-AMC hydrolysis), loss relative to wild-type proteasome [3]: 97 % lost
Ubp6-I329A L330A (from UniProt P43593 97-499) (enzyme) | 4 | – | – | proteasome-activated deubiquitinating activity (Ub-AMC hydrolysis) of Ubp6-AA relative to wild-type Ubp6 [4]: 2 % of WT
α3 subunit of the CP α ring (natural protein, budding yeast, alpha3 subunit of the core particle alpha ring, budding yeast; Stood in the assay as a subunit of m6; source: subunit of the 26S proteasome (3X FLAG) purified from yeast) MGSRRYDSRTTIFSPEGRLYQVEYALESISHAGTAIGIMASDGIVLAAERKVTSTLLEQDTSTEKLYKLNDKIAVAVAGLTADAEILINTARIHAQNYLKTYNEDIPVEILVRRLSDIKQGYTQHGGLRPFGVSFIYAGYDDRYGYQLYTSNPSGNYTGWKAISVGANTSAAQTLLQMDYKDDMKVDDAIELALKTLSKTTDSSALTYDRLEFATIRKGANDGEVYQKIFKPQEIKDILVKTGITKKDEDEEADEDMK | – | binds | – | –

More lines, main results first:

Kd [1] [nM] | binding result [5] | binding result [6] | Molecule | further results
– | – | binds | Rpt1 (proteasome subunit) (natural protein, budding yeast, Rpt1, ATPase of the regulatory particle, budding yeast; Stood in the assays as a subunit of m6 or m10; source: subunit of the 26S proteasome (3X FLAG) or RP (Protein A) purified from yeast) MPPKEDWEKYKAPLEDDDKKPDDDKIVPLTEGDIQVLKSYGAAPYAAKLKQTENDLKDIEARIKEKAGVKESDTGLAPSHLWDIMGDRQRLGEEHPLQVARCTKIIKGNGESDETTTDNNNSGNSNSNSNQQSTDADEDDEDAKYVINLKQIAKFVVGLGERVSPTDIEEGMRVGVDRSKYNIELPLPPRIDPSVTMMTVEEKPDVTYSDVGGCKDQIEKLREVVELPLLSPERFATLGIDPPKGILLYGPPGTGKTLCARAVANRTDATFIRVIGSELVQKYVGEGARMVRELFEMARTKKACIIFFDEIDAVGGARFDDGAGGDNEVQRTMLELITQLDGFDPRGNIKVMFATNRPNTLDPALLRPGRIDRKVEFSLPDLEGRANIFRIHSKSMSVERGIRWELISRLCPNSTGAELRSVCTEAGMFAIRARRKVATEKDFLKAVDKVISGYKKFSSTSRYMQYN | –
– | – | binds | Rpt1-S164R T166K (natural protein, budding yeast, Rpt1, ATPase of the regulatory particle, budding yeast, with S164R and T166K; Stood in the assay as a subunit of m7; also called Rpt1-RK; rpt1-RK; source: subunit of the Rpt1-RK 26S proteasome (3X FLAG) purified from yeast) MPPKEDWEKYKAPLEDDDKKPDDDKIVPLTEGDIQVLKSYGAAPYAAKLKQTENDLKDIEARIKEKAGVKESDTGLAPSHLWDIMGDRQRLGEEHPLQVARCTKIIKGNGESDETTTDNNNSGNSNSNSNQQSTDADEDDEDAKYVINLKQIAKFVVGLGERVRPKDIEEGMRVGVDRSKYNIELPLPPRIDPSVTMMTVEEKPDVTYSDVGGCKDQIEKLREVVELPLLSPERFATLGIDPPKGILLYGPPGTGKTLCARAVANRTDATFIRVIGSELVQKYVGEGARMVRELFEMARTKKACIIFFDEIDAVGGARFDDGAGGDNEVQRTMLELITQLDGFDPRGNIKVMFATNRPNTLDPALLRPGRIDRKVEFSLPDLEGRANIFRIHSKSMSVERGIRWELISRLCPNSTGAELRSVCTEAGMFAIRARRKVATEKDFLKAVDKVISGYKKFSSTSRYMQYN | –
– | binds | – | α2 subunit of the CP α ring (natural protein, budding yeast, alpha2 subunit of the core particle alpha ring, budding yeast; Stood in the assay as a subunit of m6; source: subunit of the 26S proteasome (3X FLAG) purified from yeast) MTDRYSFSLTTFSPSGKLGQIDYALTAVKQGVTSLGIKATNGVVIATEKKSSSPLAMSETLSKVSLLTPDIGAVYSGMGPDYRVLVDKSRKVAHTSYKRIYGEYPPTKLLVSEVAKIMQEATQSGGVRPFGVSLLIAGHDEFNGFSLYQVDPSGSYFPWKATAIGKGSVAAKTFLEKRWNDELELEDAIHIALLTLKESVEGEFNGDTIELAIIGDENPDLLGYTGIPTDKGPRFRKLTSQEINDRLEAL | –
